Measurements as given in the supplement of paper PMC12764529.
± gives the half width of the 95% confidence interval.

experiment: folding stability dG unfold from chymotrypsin proteolysis; higher = more stable
Procedure, shortened: (§1)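 Sequencing followed digestion of designed mini-proteins with trypsin and chymotrypsin, each at 11 concentrations in threefold dilutions together with a no-protease condition. The mini-proteins were under 80 residues, had no cysteine, sat in a PA-tagged cDNA display construct, and were kept only if AlphaFold2 dimer inter-PAE was above 15. From the counts, Bayesian fitting gave K50, and unfolding free energy was derived against a sequence-predicted unfolded-state K50 and a shared folded-state K50, per protease or combined.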

| Sequence | folding stability dG unfold |
| --- | --- |
| SAGGSAGGSAGGSDYIMFRIPAPPGEKIEIPIPNGWEVEINPQPHNGRWYFMIKIPEDASAGGSAGGSAGGS [r4_360_TrROS] | 1.09 ± 0.11 kcal/mol |
| SAGGSAGGSAGGAEELAKELAEKLGLEKKKVLIKLPNGKVVEVTIEDLKKLNLKNAEIVPSAGGSAGGSAGG [r7_863_TrROS_Hall] | 0.492 ± 0.12 kcal/mol |
| SAGITIIIRGPDAKEAAEDIAKELLKNGFKRPITVHVLDPDGKPWYRIKIQFDPKNPGKIKVKVEPYDSAGG [r19_85_TrROS] | 3.66 ± 0.042 kcal/mol |
| SLDKARDILREHGMEPTSIDVVEDGWVKVTWEYPGNKVEIFIPEDGNIMIEFRNPNNGQRVERTIPVDDVSA [r9_2_TrROS] | 0.753 ± 0.14 kcal/mol |
| SKLKIEEIEINPNMPYTISVKLPDGFYISIQYDPGKPDQMKMNIFPPDGKKREHTIPANEPIRINFEIEPSA [r9_875_TrROS] | 2.55 ± 0.04 kcal/mol |
| SMVKTIEIEIVLPPGEWVKLTEEDIKEKIEKELPGWKILSIDITKEERLVPGGTEPLVVIKAKILVEKKESA [r9_1189_JUSTAS] | 3.19 ± 0.14 kcal/mol |
| SAGGSAGGSAGGSMKLNITVTLPDGTPITLTFPVDKIEEILKEAGLENISPELITKIEPISAGGSAGGSAGG [r7_745_JUSTAS] | 1.39 ± 0.026 kcal/mol |
| SAGGSAGGSFPLDEIRKFAKKLGNPFIEIEPVKPHVYRIKIYNKKNGKKKEFPIYLDEDGKIMSAGGSAGGS [r12_170_TrROS] | 1.27 ± 0.15 kcal/mol |
| SAGGSAGGSAEELLKAFPNAEIVKYDPETKKFIIKLKDGSYLVVNLETGEIKLVSKEELEKASAGGSAGGSA [r18_381_TrROS_Hall] | 3.94 ± 0.066 kcal/mol |
| SAGGMEEILKKLGVKKGDKVKIKIKVEKDGKTETVEIEVPVENLEDILKKLGLSKDQVKITEIKVEKESAGG [r13_681_TrROS_Hall] | 3.84 ± 0.1 kcal/mol |
| SAGGSAGGSADDEIVAEFTFTVPGTGVKKVKVKVFKDPNSDEYWVRVEGKWLPVSNPEEALESAGGSAGGSA [r18_67_TrMRF] | 2.4 ± 0.066 kcal/mol |
| NIRITDIEMYPFPNNNQPQMEFTLEWPNGPRRTVEFELPGQEMEVYVDPKKGEIWFYFPNNGMFMKITIEPS [r1_125_TrROS] | 2.97 ± 0.1 kcal/mol |
| SAGGSAGGSAGKIEIDPSKPALVRVRLVPENGIPREIVVEAGDLSKLLPENFKVLSIELGSAGGSAGGSAGG [r17_449_TrMRF] | 0.397 ± 0.06 kcal/mol |
| SAGGSAGGSAGGSKKEKYYLVTRIEVEVNGKKYPLGSKLPKNLPPGAKIKIETRIVKLDSAGGSAGGSAGGS [r4_436_TrROS_Hall] | 1.58 ± 0.071 kcal/mol |
| SAGGMTIEEILNMSIEEVKALAEEKGLKEVVITLPDGSKITIKVNKDGSIEVTVTNKDGSKKTFTFPSAGGS [r8_51_TrROS_Hall] | 3.97 ± 0.1 kcal/mol |
| SAGGMSITITTNAPKEVLLRFIKDLAEEIGVEVDVEVTVEPLEDGPIVTAHVHIDPKEPEVPLEELFSAGGS [r16_262_TrMRF] | 0.384 ± 0.074 kcal/mol |
| SAGGSAGGSAGSPLAQAVIDELKAQGYTVEAVTVTQPPGNAPVVVVTVKKPDGTRVVIDLSAGGSAGGSAGG [r11_780_JUSTAS] | 2.182 ± 0.016 kcal/mol |
| SAGGSAGGSKKKIKVIIEVEVNGKKYKIEVEAETEEEAKKKAEEAIKELKKKFPNVKIKKIKPSAGGSAGGS [r12_230_TrROS_Hall] | 4.08 ± 0.25 kcal/mol |
| SAPLKIDLDIEPIPPGDKVRFNARITYPDGHPIRIPFEIYVPPDEIVIKFPIQDPKNGEPIAPLTFVIKSAG [r14_670_TrROS] | 1.97 ± 0.2 kcal/mol |
| SAGGSAGGSANGFVFKIKEVFEVDGKLFLKVTGTDKEYIIPDNAIIEPLEDDSVKVIILPPESAGGSAGGSA [r18_468_TrMRF] | 1.35 ± 0.086 kcal/mol |
| SAGGMKVRVRLPDGTEVELEVTEVTVSTDPSTGTPVYTITLANGEKLTVTVPVDKPVRPGETVTVTPESAGG [r13_390_JUSTAS] | 3.71 ± 0.053 kcal/mol |

experiment: folding stability dG unfold (combined trypsin and chymotrypsin); higher = more stable
Procedure, shortened: as §1

| Sequence | folding stability dG unfold |
| --- | --- |
| SAGGSMITLTFPAPREVAVPAIEAAAEKHGVTILSVEFDPATGRLTVTVDSSLPEEEVRAMVAAVLASAGGS [r8_338_JUSTAS] | 4.57 ± 0.075 kcal/mol |
| SAGGSAGGSAGMKVVVTLPDRTVTIPVNGTLDEAKEAVIKRAEELFGKPIPIEEITMSGESAGGSAGGSAGG [r11_1028_JUSTAS] | 0.408 ± 0.11 kcal/mol |
| SAGGSAGGSPPPITIFTAYKDPEDGPYWMKRRKINPDNGNIEEEWYPADDLADHGLPPGDIFISAGGSAGGS [r12_123_TrROS] | 0.203 ± 0.2 kcal/mol |
| SAGGSAGGSAGMLKKSPSPSIITVKIKPPDSDEVKTINIPPDKPEEVEKLREKGLEIEVLSAGGSAGGSAGG [r11_1006_JUSTAS] | -0.211 ± 0.26 kcal/mol |
| SMPEILDVREDPDAPGALTFRVKLPDGEATVVIPYDPETGTFTAVRYYPDGEEVREFDSFEDALEAILEDSA [r9_366_TrMRF] | 1.49 ± 0.053 kcal/mol |
| SAGGSAGGSAGKPKKKPPKPKIETKTITVTITNKDGSKTTVTATIVRNKDTNELFIRISSSAGGSAGGSAGG [r11_1024_TrROS_Hall] | 2.98 ± 0.22 kcal/mol |
| SAGKKSIVAPYEELKKIIELLPSGKKYKVIASDPNGKKIEGTIEVKGGKAKIEPGPKNTFKDLLIVITGSAG [r5_85_TrMRF] | 0.248 ± 0.12 kcal/mol |
| SAGGIKIEIMFLMPLKDVRSIIDEIAKMPGIKITDVEVDIIPFENGTVMFRVTFEIEIYDPENGEPISAGGS [r8_374_TrROS] | 4.27 ± 0.36 kcal/mol |
| SAGGSANNWKPIGEFPFRHPDGWRVTVPIWRDPGEGNIKINVKYQGPNGPPSKQMKEWAKKLLDEISAGGSA [r15_529_TrROS] | 0.866 ± 0.31 kcal/mol |
| SAGGSAMMTVTITIPKENLTKEEIKKALEEAGAKVVKVEEKDGKVTVTVEMTPEQVEKLKEALKKLSAGGSA [r15_161_TrROS_Hall] | 4.14 ± 0.45 kcal/mol |
| SAGGMNTESSFPITLPDGRKVLKNVKTDPETGEITVTVTSIGDPNVKTTEKVDPENPEKVLETVTKPESAGG [r13_400_JUSTAS] | 0.0461 ± 0.15 kcal/mol |
| SMKITEIEPDGDGTLEIEIPVEAPPGMDPDEVQIYVMSDDGIRHVRITPNGTVEITIENIPDIRIYIFVHSA [r9_722_TrROS] | 2.26 ± 0.079 kcal/mol |
| SAGGSVTLSAEFTLPDGSRVRLTVEVLPDGTLRVSAEVEAVPLVPPVRVSRLPDGSLVSDPLGVPLVLSAGG [r13_151_TrMRF] | 1.57 ± 0.15 kcal/mol |
| SAGGGPLRTVEVELEFETEEEAEKAIKEYLEKLGLPPEKVEVSFVSREERLVEDKIVYRYKFVFTLPSAGGS [r16_240_JUSTAS] | 4.98 ± 0.17 kcal/mol |
| SAGGMTIKPGETVEIEVGGKKITLTRNENGELTITIEDEETGETLTITVPKDTTLEEVLKKIEELLKSAGGS [r8_158_TrROS_Hall] | 3.61 ± 0.06 kcal/mol |
| SAGGKIEVEPEVELYRTPDGRLVARPKPVKVKITLKLTITNENGEKKTIEVEADTPEEALAALKALSSAGGS [r8_440_TrROS_Hall] | 0.965 ± 0.14 kcal/mol |
| SAGGTVEEIKEKLEEAGWEVVKVEKKEDGSITVTVRRKDGKELKIEIDLKNEEVRKALAELLPEEELSAGGS [r16_821_TrROS_Hall] | 2.95 ± 0.15 kcal/mol |
| SAMVVSEELSPEGTRTTTTFNPATGTSTTTTTPIPEEPPLPPVSIPTSLSPEEREALREELEAAGVPVVLGS [r1_242_JUSTAS] | 0.652 ± 0.079 kcal/mol |
| SAMRPGDPWKPVEERKIPIRNPNNGKEIEIEVYRFKDDGMYMVSIHFPDGKSIQFMVPPGDVEEIIEQISAG [r14_240_TrROS] | 2.8 ± 0.058 kcal/mol |
| SAGMITVPLPDGSVLELTVEKETVTTEVDPSTGKKRLVTETLMTNTGDLAVNGKVSPTTATLTTVVLESAGG [r19_246_JUSTAS] | 0.155 ± 0.069 kcal/mol |
| SSISIPGLTEEKAAELAKRLRELFPGAEVKTTTFPEKKVVVVDVTLPVVDADGKLVGTVKLRLVLVVEDDSA [r9_378_TrMRF] | 4.84 ± 0.34 kcal/mol |

| Sequence | folding stability dG unfold |
| --- | --- |
| SAGGSAGGSAGGSDYIMFRIPAPPGEKIEIPIPNGWEVEINPQPHNGRWYFMIKIPEDASAGGSAGGSAGGS [r4_360_TrROS] | 1.13 ± 0.12 kcal/mol |
| SAGGSAGGSAGGAEELAKELAEKLGLEKKKVLIKLPNGKVVEVTIEDLKKLNLKNAEIVPSAGGSAGGSAGG [r7_863_TrROS_Hall] | 0.786 ± 0.18 kcal/mol |
| SAGITIIIRGPDAKEAAEDIAKELLKNGFKRPITVHVLDPDGKPWYRIKIQFDPKNPGKIKVKVEPYDSAGG [r19_85_TrROS] | 3.65 ± 0.076 kcal/mol |
| SLDKARDILREHGMEPTSIDVVEDGWVKVTWEYPGNKVEIFIPEDGNIMIEFRNPNNGQRVERTIPVDDVSA [r9_2_TrROS] | 0.472 ± 0.15 kcal/mol |
| SKLKIEEIEINPNMPYTISVKLPDGFYISIQYDPGKPDQMKMNIFPPDGKKREHTIPANEPIRINFEIEPSA [r9_875_TrROS] | 2.19 ± 0.12 kcal/mol |
| SMVKTIEIEIVLPPGEWVKLTEEDIKEKIEKELPGWKILSIDITKEERLVPGGTEPLVVIKAKILVEKKESA [r9_1189_JUSTAS] | 3.83 ± 0.21 kcal/mol |
| SAGGSAGGSAGGSMKLNITVTLPDGTPITLTFPVDKIEEILKEAGLENISPELITKIEPISAGGSAGGSAGG [r7_745_JUSTAS] | 1.37 ± 0.051 kcal/mol |
| SAGGSAGGSFPLDEIRKFAKKLGNPFIEIEPVKPHVYRIKIYNKKNGKKKEFPIYLDEDGKIMSAGGSAGGS [r12_170_TrROS] | 1.16 ± 0.13 kcal/mol |
| SAGGSAGGSAEELLKAFPNAEIVKYDPETKKFIIKLKDGSYLVVNLETGEIKLVSKEELEKASAGGSAGGSA [r18_381_TrROS_Hall] | 3.67 ± 0.076 kcal/mol |
| SAGGMEEILKKLGVKKGDKVKIKIKVEKDGKTETVEIEVPVENLEDILKKLGLSKDQVKITEIKVEKESAGG [r13_681_TrROS_Hall] | 3.4 ± 0.073 kcal/mol |
| SAGGSAGGSADDEIVAEFTFTVPGTGVKKVKVKVFKDPNSDEYWVRVEGKWLPVSNPEEALESAGGSAGGSA [r18_67_TrMRF] | 2.1 ± 0.14 kcal/mol |
| NIRITDIEMYPFPNNNQPQMEFTLEWPNGPRRTVEFELPGQEMEVYVDPKKGEIWFYFPNNGMFMKITIEPS [r1_125_TrROS] | 2.63 ± 0.35 kcal/mol |
| SAGGSAGGSAGKIEIDPSKPALVRVRLVPENGIPREIVVEAGDLSKLLPENFKVLSIELGSAGGSAGGSAGG [r17_449_TrMRF] | 0.407 ± 0.067 kcal/mol |
| SAGGSAGGSAGGSKKEKYYLVTRIEVEVNGKKYPLGSKLPKNLPPGAKIKIETRIVKLDSAGGSAGGSAGGS [r4_436_TrROS_Hall] | 1.83 ± 0.25 kcal/mol |
| SAGGMTIEEILNMSIEEVKALAEEKGLKEVVITLPDGSKITIKVNKDGSIEVTVTNKDGSKKTFTFPSAGGS [r8_51_TrROS_Hall] | 4.05 ± 0.24 kcal/mol |
| SAGGMSITITTNAPKEVLLRFIKDLAEEIGVEVDVEVTVEPLEDGPIVTAHVHIDPKEPEVPLEELFSAGGS [r16_262_TrMRF] | 0.642 ± 0.085 kcal/mol |
| SAGGSAGGSAGSPLAQAVIDELKAQGYTVEAVTVTQPPGNAPVVVVTVKKPDGTRVVIDLSAGGSAGGSAGG [r11_780_JUSTAS] | 2.39 ± 0.07 kcal/mol |
| SAGGSAGGSKKKIKVIIEVEVNGKKYKIEVEAETEEEAKKKAEEAIKELKKKFPNVKIKKIKPSAGGSAGGS [r12_230_TrROS_Hall] | 3.51 ± 0.26 kcal/mol |
| SAPLKIDLDIEPIPPGDKVRFNARITYPDGHPIRIPFEIYVPPDEIVIKFPIQDPKNGEPIAPLTFVIKSAG [r14_670_TrROS] | 1.67 ± 0.19 kcal/mol |
| SAGGSAGGSANGFVFKIKEVFEVDGKLFLKVTGTDKEYIIPDNAIIEPLEDDSVKVIILPPESAGGSAGGSA [r18_468_TrMRF] | 1.31 ± 0.061 kcal/mol |
| SAGGMKVRVRLPDGTEVELEVTEVTVSTDPSTGTPVYTITLANGEKLTVTVPVDKPVRPGETVTVTPESAGG [r13_390_JUSTAS] | 3.81 ± 0.056 kcal/mol |
